Experimental data from the DeepSol protein solubility set.

Experiment: soluble on expression in E. coli; label from the status in PepcDB or PDB records

Sequence | soluble on expression in E. coli
MDLKVVVSLSSRLYTDEIAKMQQRIGCILPLASTHGTQNVQGLGLGQVYSLETVPDYVSMYNYLSDCTLAVLDEVSVDSLILTKIVPGQTYAIKNKYQPFFQWHGTGSLSVMPPVFGREHATVKLESNDVDIVFPMVLPTPIAEEVLQKILLFNVYSRVVMQAPGNADMLDVHMHLGSVSYLGHHYELALPEVPGPLGLALLDNLSLYFCIMVTLLPRASMRLVRGLIRHEHHDLLNLFQEMVPDEIARIDLDDLSVADDLSRMRVMMTYLQSLASLFNLGPRLATAAYSQETLTATCWLR | not soluble
MVDGQPSLQQVLERVDEWMAKEGLLDPNVKSIFVTCGDWDLKVMLPGQCQYLGLPVADYFKQWINLKKAYSFAMGCWPKNGLLDMNKGLSLQHIGRPHSGIDDCKNIANIMKTLAYRGFIFKQTSKPF | not soluble
MSLAQMPLTPNPDQHNAIQRVLKSLHHYQAFLLDGLTGSGKTEVYLQIMHEVLKQGKQVLVLVPEIGLTPQTISRFKSRFHCDVALLHSGLNDSKRLQAWQQAKMGKASIILGTRSAIYTPLPRLGLIILDEEHDLSYKQQEGFRYHARDVALYRGYLEQCPVILGSATPSIDSYHLVEQNKLELLQLNQRAGVALLPKMHLIDLKVAKKNEGLSQILIDQIQHTLDRQEQVLIFLNRRGYAPVLVCESCGWQANCPNCDAHFTLHTQPYGYLHCHHCGTIHRLPETCPECHHHTLKTLGMGTAKVEEHLKTLFPEHDVIRVDRDSTSRVGSWQKIYDRIQHNKPMILLGTQMLAKGHHFPYVTLVAILDIDAGLLSVDVRAPERTAQLIVQVAGRAGRGEHKGHVYMQTLRPDHPMLTTLIEKDYRAVAKDMLEERKAARLPPYRYSVLIRCESRDRDYSQAFLQEIAQMLQHQAGDSIEIWGPIPAPMERKAGRYRAHMVILAQDRARLHFFLRPWWAEVIQLPRQHQLRLSIDVDPQEFNEGHHHHHH | soluble
MGSDKIHHHHHHMPVTHLAGALCHPTDCTLRASNSQHIATRFNEHSSVSHTRDLDRVQVAERWSRIKECNYVPVKVANTRADLGESLVWDERSGVLYFVDISGGRINGLTPDGEVDCLYESAARIGALALTDRGNLIFTEDASVAIFDVPTRKVSQHSASVHPRSTYRFNDGACDPQGRFVTGLMDEALSDNTGALFRFDWQLSDQVIHDDMGLPTGLAWSHDGHTVYFVDSAARAIYRAEYLIEGRLGAVTLFAETPAELGRPDGLALDREGGLWVCQYHGSCLLRYDRHGYLTDQVLMPVPCPTSCCFGGPGMNTLYISTARYDMTPEDLHHYPDAGDLYAIRPETGGVARHSFKE | not soluble
MEKTPAETTAVSAGNVPRDSIPCITNVSADTRGRTRPSRPATVPQRRPARIGHFRRRSASLSFLDWPDGSVTEGVRTTSASVAASAARFDEIRRRRQSINDEMKERTLEDALAVELVNETFRCSVTSDARKDLQKLVRRVSGTVLRLSWPNGWFFTYCDLLRVGYFGHLNIKGLEKTFLCCDKFLPGLEHHHHHH | not soluble
MTLNKTDRIVITLGKQIVHGKYVPGSPLPAEAELCEEFATSRNIIREVFRSLMAKRLIEMKRYRGAFVAPRNQWNYLDTDVLQWVLENDYDPRLISAMSEVRNLVEPAIARWAAERATSSDLAQIESALNEMIANNQDREAFNEADIRYHEAVLQSVHNPVLQQLSIAISSLQRAVFERTWMGDEANMPQTLQEHKALFDAIRHQDGDAAEQAALTMIASSTRRLKEIT | not soluble
MSQGQSKKLDVTVEQLRSIYHQFHDILEEKTDLHLPKKEYDDDAVRREVQIQLQEFLLSAMTMASKSLEVVNADTVGKTVKQLIMESQEKYMEPFDLDLNEQVRKMYQEWEDETVKVAQLRQTGPAKINEVYNNSKDEYLAQLDGRIGVLQARMMQQQSADHDDSTDDADDHINWEHIKQDYVASLNELYQTQQDLPKVRYNVEKVKRLMDFLEED | soluble
MDFEKIRKWLEITNEYKQSDFWTNVLKYKAPEHFFDSEASTFVYDFYQDEEYNFIIVEMPGVYEEELTIRLLSKTQLLIKGTITPVFPAEMEVLRERYYGEIERIIQLPEAAETHLLQIQLLNGLLHISYPRQVETVAFNKGLLEHHHHHH | not soluble
MSLILASLVRYYRRLATETDETGNPKVPSYGFSEEKIGWILVLDKEGRLKTVVPNLTADKKPQPKLMSVPRPEKRTSGIKPNFLWDKTAYALGVEANKNKAEAKEKPFTPSEKTFEAFKQYHLDLLQNSEDEGLQALCRFLQNWQPAHFAAENLPAEMLDSNTAFSLEKPTALIHKREAAQTLWAGCLKSDEALESLCLISGDTAPIARLHPAIKGVFGGQSSGGSIISFNKEAFSSFGKEQGANAPVSEQSAFAYTTALNYLLRRENNHCLTIGDASTVFWAEADDIVDEGHHHHHH | not soluble
MNKVWLTGLLTATASGVFSASTLAATEITWWHAMGGQLGETVNQLATDFNASQSDYKLTPVYKGSYTETLTAGIAAFRAGQAPNILQVFDAGAATIMSSKGVAKPVQDLMIESGYPFTAQDYIAGVRNFYADNTGKMVGMPFNSSTPVLYYNKDMLASVNAQAPQTYEQLEQVAAKLAEKGQAGFAQSLTPWIMFENFKSRHNLPLSDKQNGYQDLSTKIMFNSDDMLMHVKKLKEWSDKGYYKYYGSDWDANQTPFERGEVAMWMGSSGSFGGLRNRVKFNLGTTYLPYWESVTKNPTHTFIGGAALFALQGHTPAQDKGVAAFFAYLTKPETQMNWHKTTGYVPVTNAAYDLTKQSGYYQENPDAEVGVKQLSLPDGEWTKGYRLGYYPQVREVMHREFDNIFSGRSTVESSLNKVEDESAKLLNRFARTVQ | not soluble
MSLSIYKDINIASAKPSLKERKNIKHYALDHLNIDEKNNAPLFKTLLEDAMRVSSKEILLIVGGSSFYLKSILEGLSRMPKLSGEEVVKIEREIATLSNPYIFLKSIDPNMAFKIHPNDTYRTHKALEIFYATCTPPSEYFKANPKKPFEHAISLFALSIEKSALHNNIKRRTKNMLHSGLVEEIKALYTQYPKDSQPFKAIGVKESVLFLEKRLTLKELEEAITSNTMKLAKRQNTFNKTQFNNLYVGSAEEVRHAILKHSKSGIKGEGHHHHHH | not soluble
MGSDKIHHHHHHMIKELKTLIAVAREGTFAAAGDRIGLTQAAVSAQMQRLEAQLGVELFDRKGRSAQLNRMGQQVLLQGQELVRLYGSLGNSATGSAPNVLVTIGAIASVQRSFLPDALALFHRQFPQCRTRVIPGLSMDLVNQVDAGEVDLAAIIRPPFSLHSDLRWTTLMREPYRLIVPADLQGEDWAELISSQPFIRYDRSSFGGRQVDRFLRQTHVSLREVCELDELDAIVKLVANGVGVALVPETATIQAWPAGVRAVNLGPHTFHRDIGLVHRARRSLTEPVNVLAQLLTAQVQDTQ | not soluble
MGSDKIHHHHHHMPRPAPRVTNSPMNTSPTWGVVATVKAPEHEILRFAAWHLELGAHRLFLYLDDPDPAVFARLKAHPRIRVFACDDSYWQRRKLSRPVKHQARQTMNARHAYNRADVDWLAHIDVDEFIWSETPIAAVLSGLPDDTLCARMRPIEALAGGDALYKAFIPGGPARDGIVRRLYPTFGAFVKGGFMSHVAGKVFARTGMEKVDFRIHNIFRNKEMNPHQVELDMVDLCHRHGADWDHWIAAYRYRIAQGSYRPDLAPNVPREAGGLSMHELLSGIEEEQGEDGLRAFFDELNACAPEGRARLRAEGMLKHRPLDLDGAMQKQFPK | not soluble
ANEMTYEQLARELLLVGPAPTNEDLKLRYLDVLIDNGLNPPGPPKRILIVGAGIAGLVAGDLLTRAGHDVTILEANANRVGGRIKTFHAKKGEPSPFADPAQYAEAGAMRLPSFHPLTLALIDKLGLKRRLFFNVDIDPQTGNQDAPVPPVFYKSFKDGKTWTNGAPSPEFKEPDKRNHTWIRTNREQVRRAQYATDPSSINEGFHLTGCETRLTVSDMVNQALEPVRDYYSVKQDDGTRVNKPFKEWLAGWADVVRDFDGYSMGRFLREYAEFSDEAVEAIGTIENMTSRLHLAFFHSFLGRSDIDPRATYWEIEGGSRMLPETLAKDLRDQIVMGQRMVRLEYYDPGRDGHHGELTGPGGPAVAIQTVPEGEPY | soluble
MEAKKSNKIREIVKLQQLLKKWRKQAIASKAANNNNEDNNSSGGGSKSIKFLKRTLSFTDVTAVPKGYLAVSVGLEKKRYTIPTEYLSHQAFYVLLREAEEEFGFQQAGVLRIPCEVSVFESILKIMEEKNEGYLVTPITAKQECKFNAAADDKTSYQHPSDCPKTPSHQPHNSPMCR | soluble
DKPLSNMKILTLGKLSRNKDEVKAMIEKLGGKLTGTANKASLCISTKKEVEKMNKKMEEVKEANIRVVSEDFLQDVSASTKSLQELFLAHILSSWGAEVK | soluble
MVRIIVDHSLILLYSLSAFEESKYISSEEQMQISEYINVDDKIIQRWFEIRRAPTQESWEPEVILPEAIAIFEKEFTTNPNPCSHTLEELRMKTHVQVDSINKWFDERRCAAEQNIKSDSEGSEASFSLCSSWGDTDKELKVDLKMA | not soluble
MKKVAIIGAGIVGATAAYYLSKEKDIAVTVFDDGFGQATKAAAGIICPWFSKRRHKAWYRLARLGADFYQTLLSDLKRDACKVDFYEQSGAFLLKNKAESLDELFEIGQKRKSQSPLIGHLEIQKRADLTGLLADLVGFDRCIYASGAARVEGASLTEALLNASHAKMVNKKVGLQVLSDGNYRVNGKKYTAVLLACGAWLPQILEPLGYKIDIRPQKGQLRDYFFNSEDTEKFPVIMPEGEVDIIPFAHGKVSVGASHENDHGFDLQIDNSVLDKMEKEAQTYFPKLKEATSKNERVGTRAYTRDFAPFFGRVTGLANVYAASGLGSSGLTTGPLIGNQLVKMLLDKELDIQASDYSPDKYIVKNSLEHHHHHH | not soluble
MILKALPNESMPREKLLQRGPQALTDAELLAIFLRTGTQGMNVIELADFLIQDFGSLRQLFSASEQEFCQHKGLGQAKYVQLQAVLEMTQRYLAETLKRGDALTSPEQTKLYLSSILRDRQREAFYILFLDNQHRVIKDEILFEGTLDAASVYPREVVKRALHHNAAALILAHNHPSGVAEPSQADRRITRRLIDALALVDIRILDHFVIGDGESVSFAERGWI | not soluble
MGSDKIHHHHHHMRMERVVERVAVTGAEAVANAMRQIEPDVVAAYPITPQTPIVEYFARFVADGVVRTEMIPVESEHSAMSAVVGAAAAGARAMTATSANGLALMHEIVYIAASYRLPIVMPVVNRALSGPINIHCDHSDAMAERDSGWIQLFAETNQEAYDFTILAVRLAEHEDVRLPVMVNLDGFILSHGVEPVEFYPDELVKKFVGELKPMYPLLDTEHPVTWGPLDLYDYYFEHKRQQIEAMENVKKVFPEIAKEFEETFGRKYWFVEPYRMEDAEHVMVALGSTNSTIKYVVDELREEGYKVGSLKIWMFRPFPKEQLQELLNGRKSVVVLDRAVSFGAEAPLYEAVKSALYEVAARPMLGSYVYGLGGRDIKPEHIRKAFEDAINGNLIADEQRYLGLRE | not soluble
MGAAKASLGRIFPESSILFLCDMQEKLRDRILYFPQIVSMAARMLKVAQMLEIPVLLTEHYPQGLGPTVPELGAQGLRTMSKTSFSMVPPLQQELDKLPQLQSVLLRGIETQGCILHTALDLLDRGLQVHVAVDACSSQSEMNRLVALARMQQSGVFLSTSEVLILQLVKDAAHPQFKEIQKILKEPVTDIGLLGFFQGKKNSLLPNSRT | not soluble
GSSDVQYTEVQVSSAESHKDLGKKDTETVYSEVRKAVPDAVESRYSRTEGSLDGT | soluble
